# Source: patent US20190309023A1 (MAINLINE BIOSCIENCES, published 2019)
# Bridge positions count the residues as written; N and C are the ends. Square brackets hold non-standard residues; d marks the D form. * marks the point of attachment. 2Nal = N[C@@H](Cc1ccc2ccccc2c1)C(=O)O; Palmitoyl = CCCCCCCCCCCCCCCC(=O)*; Lauroyl = CCCCCCCCCCCC(=O)*; hCys = N[C@@H](CCS)C(=O)O; PhAc = O=C(Cc1ccccc1)*; Bz = O=C(c1ccccc1)*; Mpa = O=C(O)CCS; iPr = CC(C)*
# B1: Cyclo[Mpa-Tyr-Lys(iPr)-(D-Arg)-2Nal-Gly-Cys]-Lys(iPr)-Gly-NH(Et) (peptide)
# peptide: [Mpa]YK(iPr)[dR][2Nal]GCK(iPr)G-NHEt
# modifications: disulfide 1-7; also: acetate salt
# notes: Synthetic cyclic peptide, acetate salt; also called MLB-014
# B2: Cyclo[Mpa-Tyr-Lys(iPr)-(D-Arg)-2Nal-Gly-Cys]-Lys(iPr)-Lys(lauroyl)-NH(Et) (peptide)
# peptide: [Mpa]YK(iPr)[dR][2Nal]GCK(iPr)K(Lauroyl)-NHEt
# modifications: disulfide 1-7; also: acetate salt
# notes: Synthetic cyclic peptide, acetate salt; also called MLB-028
# B3: Cyclo[Mpa-Tyr-Lys(iPr)-(D-Arg)-2Nal-Gly-Cys]-Lys(iPr)-Lys(Ac)-NH(Et) (peptide)
# peptide: [Mpa]YK(iPr)[dR][2Nal]GCK(iPr)K(Ac)-NHEt
# modifications: disulfide 1-7; also: acetate salt
# notes: Synthetic cyclic peptide, acetate salt; also called MLB-027
# B4: Cyclo[Mpa-Tyr-Lys(iPr)-(D-Arg)-2Nal-Gly-Cys]-Lys(iPr)-Lys(palmitoyl)-NH(Et) (peptide)
# peptide: [Mpa]YK(iPr)[dR][2Nal]GCK(iPr)K(Palmitoyl)-NHEt
# modifications: disulfide 1-7; also: acetate salt
# notes: Synthetic cyclic peptide, acetate salt; also called MLB-029
# B5: Benzoyl-cyclo[Cys-Tyr-Lys(iPr)-(D-Arg)-2Nal-Gly-Cys]-Lys(iPr)-Gly-NH2 (peptide)
# peptide: Bz-CYK(iPr)[dR][2Nal]GCK(iPr)G-NH2
# modifications: disulfide 1-7; also: acetate salt
# notes: Synthetic cyclic peptide, acetate salt; also called MLB-023
# B6: Benzoyl-cyclo[hCys-Tyr-Lys(iPr)-(D-Arg)-2Nal-Gly-Cys]-Lys(iPr)-Gly-NH2 (peptide)
# peptide: Bz-[hCys]YK(iPr)[dR][2Nal]GCK(iPr)G-NH2
# modifications: disulfide 1-7; also: acetate salt
# notes: Synthetic cyclic peptide, acetate salt; also called MLB-021
# B7: MLB-033 (peptide)
# peptide: Ac-CYK(iPr)[dR][2Nal]GCK(iPr)G-NH2
# modifications: linker 1-7 via 1,3‑bisbromomethyl benzene; also: acetate salt
# notes: Acetate salt
# B8: Ac-cyclo[hCys-Tyr-Lys(iPr)-(D-Arg)-2Nal-Gly-Cys]-Lys(iPr)-Gly-NH(Et) (peptide)
# peptide: Ac-[hCys]YK(iPr)[dR][2Nal]GCK(iPr)G-NHEt
# modifications: disulfide 1-7; also: acetate salt
# notes: Synthetic cyclic peptide, acetate salt; also called MLB-026
# B9: MLB-030 (peptide)
# peptide: Bz-CYK(iPr)[dR][2Nal]GCK(iPr)G-NH2
# modifications: linker 1-7 via 1,2‑bisbromomethyl benzene; also: acetate salt
# notes: Acetate salt
# B10: Cyclo[Mpa-Arg-Tyr-Arg-2Nal-Gly-Cys]-Arg-Gly-(D-Phe)-Gly-NH2 (peptide)
# peptide: [Mpa]RYR[2Nal]GCRG[dF]G-NH2
# modifications: disulfide 1-7; also: acetate salt
# notes: Synthetic cyclic peptide, acetate salt; also called MLB-011
# B11: Ac-cyclo[hCys-Tyr-Lys(iPr)-(D-Arg)-2Nal-Gly-Cys]-Lys(iPr)-Gly-NH2 (peptide)
# peptide: Ac-[hCys]YK(iPr)[dR][2Nal]GCK(iPr)G-NH2
# modifications: disulfide 1-7; also: acetate salt
# notes: Synthetic cyclic peptide, acetate salt; also called MLB-010
# B12: Phenylacetyl-cyclo[hCys-Tyr-Lys(iPr)-(D-Arg)-2Nal-Gly-Cys]-Lys(iPr)-Gly-NH2 (peptide)
# peptide: PhAc-[hCys]YK(iPr)[dR][2Nal]GCK(iPr)G-NH2
# modifications: disulfide 1-7; also: acetate salt
# notes: Synthetic cyclic peptide, acetate salt; also called MLB-025
# B13: MLB-032 (peptide)
# peptide: Ac-CYK(iPr)[dR][2Nal]GCK(iPr)G-NH2
# modifications: linker 1-7 via 1,2‑bisbromomethyl benzene; also: acetate salt
# notes: Acetate salt
# B14: Cyclo[Mpa-Tyr-Lys(iPr)-(D-Arg)-2Nal-Gly-Cys]-(D-Arg)-Gly-(D-Phe)-Gly-NH2 (peptide)
# peptide: [Mpa]YK(iPr)[dR][2Nal]GC[dR]G[dF]G-NH2
# modifications: disulfide 1-7; also: acetate salt
# notes: Synthetic cyclic peptide, acetate salt; also called MLB-004
# B15: Cyclo[Mpa-Tyr-Lys(iPr)-(D-Arg)-2Nal-Gly-Cys]-Arg-Gly-(D-Phe)-Gly-NH2 (peptide)
# peptide: [Mpa]YK(iPr)[dR][2Nal]GCRG[dF]G-NH2
# modifications: disulfide 1-7; also: acetate salt
# notes: Synthetic cyclic peptide, acetate salt; also called MLB-002
# B16: Cyclo[Mpa-Tyr-Arg-(D-Arg)-2Nal-Gly-Cys]-Arg-Gly-(D-Phe)-Gly-NH2 (peptide)
# peptide: [Mpa]YR[dR][2Nal]GCRG[dF]G-NH2
# modifications: disulfide 1-7; also: acetate salt
# notes: Synthetic cyclic peptide, acetate salt; also called MLB-001
# B17: Cyclo[Mpa-Tyr-Lys(iPr)-(D-Arg)-2Nal-Gly-Cys]-Lys(iPr)-Gly-2Nal-Gly-NH2 (peptide)
# peptide: [Mpa]YK(iPr)[dR][2Nal]GCK(iPr)G[2Nal]G-NH2
# modifications: disulfide 1-7; also: acetate salt
# notes: Synthetic cyclic peptide, acetate salt; also called MLB-008
# B18: Benzoyl-cyclo[Cys-Tyr-Lys(iPr)-(D-Arg)-2Nal-Gly-hCys]-Lys(iPr)-Gly-NH2 (peptide)
# peptide: Bz-CYK(iPr)[dR][2Nal]G[hCys]K(iPr)G-NH2
# modifications: disulfide 1-7; also: acetate salt
# notes: Synthetic cyclic peptide, acetate salt; also called MLB-022
# B19: Benzoyl-cyclo[hCys-Tyr-Lys(iPr)-(D-Arg)-2Nal-Gly-Cys]-Lys(iPr)-Gly-NH(Et) (peptide)
# peptide: Bz-[hCys]YK(iPr)[dR][2Nal]GCK(iPr)G-NHEt
# modifications: disulfide 1-7; also: acetate salt
# notes: Synthetic cyclic peptide, acetate salt; also called MLB-024
# Molecular target: T1, Human chemokine receptor CXCR4 (human, UniProt P61073 1-352)
# T1 construct: whole, on cells; Used as membranes (0.5 ug membrane protein) of Chem-1 cells that express the receptor; also called C-X-C chemokine receptor type 4; fusin
# Assay: competition with [125I]SDF-1α, human CXCR4 membranes (Chem-1 cells)
# Method: Human chemokine receptor CXCR4 expressed in Chem-1 cells were used in modified HEPES buffer pH 7.4. A 0.5 μg (Membrane protein may change from lot to lot, the concentration used were adjusted as necessary), aliquot was incubated with 0.03 nM [¹²⁵I]SDF-1α for 90 minutes at 25° C. Non-specific binding was estimated in the presence of 30 nM SDF-1α. Membranes were filtered and washed, filters were then counted to determine [¹²⁵I]SDF-1α specifically bound. Compounds were screened starting at 10 μM with 11-point dilutions (Valenzuela-Fernandez A, et al. J Biol Chem. 277(18):15677, 2002).
# T1 sequence (P61073 whole entry): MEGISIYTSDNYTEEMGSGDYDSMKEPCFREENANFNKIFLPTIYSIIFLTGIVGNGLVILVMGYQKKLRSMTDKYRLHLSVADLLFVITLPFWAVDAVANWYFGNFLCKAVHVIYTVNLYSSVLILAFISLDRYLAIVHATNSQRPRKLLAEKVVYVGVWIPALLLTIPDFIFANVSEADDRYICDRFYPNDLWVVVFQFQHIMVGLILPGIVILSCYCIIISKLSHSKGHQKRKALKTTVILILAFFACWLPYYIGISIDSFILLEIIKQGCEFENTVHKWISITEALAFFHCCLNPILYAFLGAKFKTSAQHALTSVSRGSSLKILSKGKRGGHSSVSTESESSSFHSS
Binder,Binding Kb,IC50
B1,0.19 nM,0.64 nM
B2,2.5 nM,8.2 nM
B3,0.15 nM,0.48 nM
B4,3.2 nM,11 nM
B5,1 nM,3.4 nM
B6,0.13 nM,0.42 nM
B7,0.99 nM,3.3 nM
B8,0.27 nM,0.89 nM
B9,0.39 nM,1.3 nM
B10,> 1000 nM,
B11,0.17 nM,0.56 nM
B12,0.25 nM,0.84 nM
B13,0.12 nM,0.4 nM
B14,0.21 nM,0.7 nM
B15,0.28 nM,0.92 nM
B16,7.3 nM,24 nM
B17,0.29 nM,0.95 nM
B18,0.21 nM,0.71 nM
B19,0.39 nM,1.3 nM
